In data set [1] the target is T1, Human TOPIB (Homo sapiens, UniProt P11387).
T1 construct: gene TOP1
T1 sequence (P11387 2-765): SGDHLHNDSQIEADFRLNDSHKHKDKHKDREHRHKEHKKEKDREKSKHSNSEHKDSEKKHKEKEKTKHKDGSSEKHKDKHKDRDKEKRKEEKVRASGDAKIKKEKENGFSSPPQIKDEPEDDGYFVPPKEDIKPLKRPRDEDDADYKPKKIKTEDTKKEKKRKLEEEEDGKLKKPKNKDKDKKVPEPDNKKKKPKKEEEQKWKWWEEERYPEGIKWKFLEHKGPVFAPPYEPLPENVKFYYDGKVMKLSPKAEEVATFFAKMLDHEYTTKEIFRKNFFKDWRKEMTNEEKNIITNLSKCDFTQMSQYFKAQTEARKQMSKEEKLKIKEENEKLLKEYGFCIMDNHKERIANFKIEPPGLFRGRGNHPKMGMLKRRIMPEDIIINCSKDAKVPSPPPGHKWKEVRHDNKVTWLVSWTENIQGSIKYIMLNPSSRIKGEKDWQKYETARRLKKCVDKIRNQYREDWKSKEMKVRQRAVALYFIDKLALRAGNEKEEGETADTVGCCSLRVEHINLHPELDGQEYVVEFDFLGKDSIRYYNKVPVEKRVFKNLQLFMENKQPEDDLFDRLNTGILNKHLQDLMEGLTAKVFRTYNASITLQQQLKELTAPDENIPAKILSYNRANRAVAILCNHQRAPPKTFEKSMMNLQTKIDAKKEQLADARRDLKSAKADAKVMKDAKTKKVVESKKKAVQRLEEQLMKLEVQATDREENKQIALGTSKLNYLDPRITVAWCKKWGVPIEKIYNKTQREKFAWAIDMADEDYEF
The data set is described as follows: plasmid DNA relaxation assay with commercial human TOPIB, […] drug (Fig. S3C). The class given is biochemical.

The target in data set [2] is T2, LdTOPIA (Leishmania donovani DNA topoisomerase IA) (Leishmania donovani, UniProt A0A3S7WW83).
T2 construct: gene LdCL_210006600; full length, 7xHis-LdTOPIA-6xHis (809 aa), expressed in L. tarentolae LtT7TR
T2 sequence (A0A3S7WW83 1-809): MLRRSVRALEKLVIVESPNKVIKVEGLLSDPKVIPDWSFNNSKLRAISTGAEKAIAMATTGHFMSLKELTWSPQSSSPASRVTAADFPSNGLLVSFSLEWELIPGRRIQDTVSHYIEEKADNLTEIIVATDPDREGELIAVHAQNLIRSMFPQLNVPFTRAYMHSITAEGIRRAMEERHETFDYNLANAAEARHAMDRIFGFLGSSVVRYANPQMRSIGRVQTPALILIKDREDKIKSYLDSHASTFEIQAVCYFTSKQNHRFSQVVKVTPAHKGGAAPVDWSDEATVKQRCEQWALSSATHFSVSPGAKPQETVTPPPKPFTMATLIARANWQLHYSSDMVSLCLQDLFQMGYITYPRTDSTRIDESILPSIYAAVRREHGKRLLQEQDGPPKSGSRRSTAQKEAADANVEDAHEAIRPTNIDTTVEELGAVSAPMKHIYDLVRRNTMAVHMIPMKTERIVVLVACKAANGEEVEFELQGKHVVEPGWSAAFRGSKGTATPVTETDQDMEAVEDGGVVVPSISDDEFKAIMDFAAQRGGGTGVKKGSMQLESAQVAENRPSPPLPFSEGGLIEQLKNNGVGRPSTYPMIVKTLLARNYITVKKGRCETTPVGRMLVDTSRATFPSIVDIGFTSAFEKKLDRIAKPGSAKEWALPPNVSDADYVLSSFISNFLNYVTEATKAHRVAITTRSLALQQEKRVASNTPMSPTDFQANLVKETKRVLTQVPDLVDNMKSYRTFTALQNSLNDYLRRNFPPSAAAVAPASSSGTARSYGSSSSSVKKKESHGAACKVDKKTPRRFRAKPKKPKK
The data set is described as follows: plasmid DNA relaxation assay with purified LdTOPIA ([…] drug), agarose gel. It counts as biochemical.

The target of data set [3] is T3, RNase H I, catalytically inactive D210N (Homo sapiens, UniProt O60930 1-286, D210N).
T3 sequence: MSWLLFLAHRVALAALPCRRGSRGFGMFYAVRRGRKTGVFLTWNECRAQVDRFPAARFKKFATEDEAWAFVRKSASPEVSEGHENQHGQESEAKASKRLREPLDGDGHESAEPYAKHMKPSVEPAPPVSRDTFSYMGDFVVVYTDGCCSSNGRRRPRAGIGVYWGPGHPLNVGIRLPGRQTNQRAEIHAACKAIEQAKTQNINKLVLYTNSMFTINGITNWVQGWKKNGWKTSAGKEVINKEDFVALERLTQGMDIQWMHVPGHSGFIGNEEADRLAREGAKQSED
The data set is described as follows: fluorescence anisotropy; 30 nM duplex, 2-200 nM protein; 50 mM Tris pH 7.5, 100 mM NaCl, 0.5 mM DTT, 0.5 mM EDTA, 5% glycerol, 15 min, 25 °C (EMSA gel at 4 °C). Particulars: protein: recombinant; tags: His (pET15b; Ni-NTA purified); label: 5' FAM on RNA strand; blunt.

Data set [4] concerns the target T4, LdTOPIA (DNA topoisomerase IA) (Leishmania donovani DD8, UniProt A0A3S7WW83 1-809).
T4 sequence: T2 sequence (A0A3S7WW83 1-809)
The data set is described as follows: fluorescence anisotropy; 50 mM Tris pH 7.5, 100 mM NaCl, 0.5 mM DTT, 0.5 mM EDTA, 5% glycerol, 15 min, 25 °C (EMSA gel at 4 °C). The settings on record: protein: recombinant; tags: N-term 7xHis, C-term 6xHis; label: 5' FAM on RNA strand; blunt.

Data set [5] addresses T4, LdTOPIA (DNA topoisomerase IA). The data set is described as follows: fluorescence anisotropy; 30 nM DNA, 0.5 mM EDTA; 50 mM Tris pH 7.5, 100 mM NaCl, 0.5 mM DTT, 0.5 mM EDTA, 5% glycerol, 15 min, 25 °C (EMSA gel at 4 °C). The settings on record: protein: recombinant, tags: N-term 7xHis, C-term 6xHis.

Take `CC[C@@]1(O)C(=O)OCc2c1cc1n(c2=O)Cc2cc3ccccc3nc2-1` [CPT, Camptothecin]: in data set [1], the “plasmid DNA relaxation assay with commercial human TOPIB, 10 μM drug (Fig. S3C)” value is “Etoposide and CPT could effectively inhibit plasmid relaxation of the TOPIB and TOPII respectively (Fig. S3C)”.

Consider `CN(C)CCCN1c2ccccc2CCc2ccccc21` [imipramine], for which the “plasmid DNA relaxation assay with purified LdTOPIA (10, 20 and 40 μM drug), agar” value in data set [2] is “Both imipramine and norclomipramine (NCL) could inhibit the DNA relaxation by LdTOPIA”.

B1: DNA:RNA duplex, FAM-RNA (DNA:RNA)
RNA: UAUUGGGCGCUCUUCCGCUUCCUCGCUCACUG
DNA: CAGTGAGCGAGGAAGCGGAAGAGCGCCCAATA
In the case of B1, the binding result was “binds” in data set [3] and “no binding” in data set [4]. For the molecule TATTGGGCGCTCTTCCGCTTCCTCGCTCACTG (ssDNA) [32-nt ssDNA, FAM], the Kd in data set [5] (label: 5' FAM) is 3.16 ± 0.12 nM.

B2: 32-bp dsDNA, FAM (dsDNA)
DNA 1: TATTGGGCGCTCTTCCGCTTCCTCGCTCACTG
DNA 2: B1 DNA
With B2, in data set [5] (label: 5' FAM on strand 1, blunt), the Kd stood at 8.1 ± 0.23 nM.

For the origin of these results see paper PMC11021369, “Resolving the polycistronic aftermath: Essential role of topoisomerase IA in preventing R-loops in Leishmania” (The Journal of Biological Chemistry, 2024).
